US20230257449A1 (published 2023)

Legend:
[1] = target: H1 (A/Cali/09/2007); experiment: ELISA
[2] = target: H3 (A/Brisbane/10/2007) (influenza A virus H3 …); experiment: ELISA

Row | Binder | EC50 [1] | EC50 [2]
1 | VH 10 / VL 6 (antibody, V domains shown) VH: QVQLVQSGAEVKKPGSSVKVSCKASGFTFSTYAIHWVRQAPGQGLEWMGVISYDANYKYYAQKFQGRVTITRDNSKSTAYMELSSLRSEDTAVYYCARDSRLRSLLYFEWLSQGYFDYWGQGTTLTVSS VL: EIVMTQSPATLSVSPGERATLSCRSSQSITFDYKNYLAWYQQKPGQAPRLLIYWGSTRATGIPARFSGSGSGTEFTLTISSLQSEDFAVYYCQQHYRTPPSFGQGTKVEIK | 0.0175 nM | 0.0695 nM
2 | VH 11 / VL 4 (antibody, V domains shown) VH: QVQLVQSGAEVKKPGASVKVSCKASGFTFSTYAINWVRQATGQGLEWMGWISYDANYKYYAQKFQGRVTMTRDTSISTAYMELSSLRSEDTAVYYCAKDSQLRSLLYFEWLSQGYFDYWGQGTTLTVSS VL: DIVMTQSPDSLAVSLGERATINCKSSQSVTFDYKNYLAWYQQKPGQPPKLLIYWASTRESGVPDRFSGSGSGTDFTLTISSLQAEDVAVYYCQQHYRTPPSFGQGTKVEIK | 0.0244 nM | 112 nM
3 | VH 10 / VL 4 (antibody, V domains shown) VH: QVQLVQSGAEVKKPGSSVKVSCKASGFTFSTYAIHWVRQAPGQGLEWMGVISYDANYKYYAQKFQGRVTITRDNSKSTAYMELSSLRSEDTAVYYCARDSRLRSLLYFEWLSQGYFDYWGQGTTLTVSS VL: DIVMTQSPDSLAVSLGERATINCKSSQSVTFDYKNYLAWYQQKPGQPPKLLIYWASTRESGVPDRFSGSGSGTDFTLTISSLQAEDVAVYYCQQHYRTPPSFGQGTKVEIK | 0.0181 nM | 0.0241 nM
4 | VH 9 / VL 4 (antibody, V domains shown) VH: QVQLVQSGAEVKKPGSSVKVSCKASGFTFSTYAIHWVRQAPGQGLEWMGVISYDANYKYYAQKFQGRVTITRDNSKSTAYMELSSLRSEDTAVYYCAKDSQLRSLLYFEWLSQGYFDYWGQGTTLTVSS VL: DIVMTQSPDSLAVSLGERATINCKSSQSVTFDYKNYLAWYQQKPGQPPKLLIYWASTRESGVPDRFSGSGSGTDFTLTISSLQAEDVAVYYCQQHYRTPPSFGQGTKVEIK | 0.0186 nM | 0.0608 nM
5 | VH 8 / VL 3 (antibody, V domains shown) VH: EVQLLESGGGLVQPGGSLRLSCAASGFTFSSYAMHWVRQAPGKGLEWVAVISYDANYKYYADSVKGRFTISRDNSKNTLYLQMNSLRAEDTAVYYCAKDSRLRSLLYFEWLSQGYFDYWGQGTLVTVSS VL: DIQMTQSPSSLSASVGDRVTITCRSSQSITFDYKNYLAWYQQKPGKAPKLLIYAASSLQSGVPSRFSGSGSGTDFTLTISSLQPEDFATYYCQQHYRTPPSFGQGTKVEIK | 0.0218 nM | 0.0286 nM
6 | VH 10 / VL 2 (antibody, V domains shown) VH: QVQLVQSGAEVKKPGSSVKVSCKASGFTFSTYAIHWVRQAPGQGLEWMGVISYDANYKYYAQKFQGRVTITRDNSKSTAYMELSSLRSEDTAVYYCARDSRLRSLLYFEWLSQGYFDYWGQGTTLTVSS VL: DIQMTQSPSSLSASVGDRVTITCRSSQSITFDYKNYLAWYQQKPGKAPKLLIYWGSSLQSGVPSRFSGSGSGTDFTLTISSLQPEDFATYYCQQHYRTPPSFGQGTKVEIK | 0.0227 nM | 0.0412 nM
7 | VH 5 / VL 6 (antibody, V domains shown) VH: QVQLVESGGGVVQPGRSLRLSCAASGFTFSTYAMHWVRQAPGKGLEWVCVISYDANYKYYADSVKGRFTCSRDNSKNTLYLQMNSLRAEDTAVYYCARDSRLRSLLYFEWLSQGYFDYWGQGTLVTVSS VL: EIVMTQSPATLSVSPGERATLSCRSSQSITFDYKNYLAWYQQKPGQAPRLLIYWGSTRATGIPARFSGSGSGTEFTLTISSLQSEDFAVYYCQQHYRTPPSFGQGTKVEIK | 0.0317 nM | 0.0295 nM
8 | VH 8 / VL 6 (antibody, V domains shown) VH: EVQLLESGGGLVQPGGSLRLSCAASGFTFSSYAMHWVRQAPGKGLEWVAVISYDANYKYYADSVKGRFTISRDNSKNTLYLQMNSLRAEDTAVYYCAKDSRLRSLLYFEWLSQGYFDYWGQGTLVTVSS VL: EIVMTQSPATLSVSPGERATLSCRSSQSITFDYKNYLAWYQQKPGQAPRLLIYWGSTRATGIPARFSGSGSGTEFTLTISSLQSEDFAVYYCQQHYRTPPSFGQGTKVEIK | 0.0269 nM | 0.0261 nM
9 | VH 8 / VL 7 (antibody, V domains shown) VH: EVQLLESGGGLVQPGGSLRLSCAASGFTFSSYAMHWVRQAPGKGLEWVAVISYDANYKYYADSVKGRFTISRDNSKNTLYLQMNSLRAEDTAVYYCAKDSRLRSLLYFEWLSQGYFDYWGQGTLVTVSS VL: EIVMTQSPATLSVSPGERATLSCRSSQSITFDYKNYLAWYQQKPGQAPRLLIYSASTRATGIPARFSGSGSGTEFTLTISSLQSEDFAVYYCQQHYRTPPSFGQGTKVEIK | 0.0318 nM | 0.0356 nM
10 | VH 7 / VL 6 (antibody, V domains shown) VH: EVQLLESGGGLVQPGGSLRLSCAASGFTFSSYAMHWVRQAPGKGLEWVSVISYDANYKYYADSVKGRFTISRDNSKNTLYLQMNSLRAEDTAVYYCAKDSQLRSLLYFEWLSQGYFDYWGQGTTLTVSS VL: EIVMTQSPATLSVSPGERATLSCRSSQSITFDYKNYLAWYQQKPGQAPRLLIYWGSTRATGIPARFSGSGSGTEFTLTISSLQSEDFAVYYCQQHYRTPPSFGQGTKVEIK | 0.0239 nM | 0.274 nM
11 | VH 3 / VL 2 (antibody, V domains shown) VH: QVQLVESGGGVVQPGRSLRLSCAASGFTFSTYAMHWVRQAPGKGLEWVAVISYDANYKYYADSVKGRFTISRDNSKNTLYLQMNSLRAEDTAVYYCAKDSQLRSLLYFEWLSQGYFDYWGQGTLVTVSS VL: DIQMTQSPSSLSASVGDRVTITCRSSQSITFDYKNYLAWYQQKPGKAPKLLIYWGSSLQSGVPSRFSGSGSGTDFTLTISSLQPEDFATYYCQQHYRTPPSFGQGTKVEIK | 0.019 nM | 0.0313 nM
12 | VH 3 / VL 3 (antibody, V domains shown) VH: QVQLVESGGGVVQPGRSLRLSCAASGFTFSTYAMHWVRQAPGKGLEWVAVISYDANYKYYADSVKGRFTISRDNSKNTLYLQMNSLRAEDTAVYYCAKDSQLRSLLYFEWLSQGYFDYWGQGTLVTVSS VL: DIQMTQSPSSLSASVGDRVTITCRSSQSITFDYKNYLAWYQQKPGKAPKLLIYAASSLQSGVPSRFSGSGSGTDFTLTISSLQPEDFATYYCQQHYRTPPSFGQGTKVEIK | 0.0246 nM | 0.0386 nM
13 | VH 5 / VL 2 (antibody, V domains shown) VH: QVQLVESGGGVVQPGRSLRLSCAASGFTFSTYAMHWVRQAPGKGLEWVCVISYDANYKYYADSVKGRFTCSRDNSKNTLYLQMNSLRAEDTAVYYCARDSRLRSLLYFEWLSQGYFDYWGQGTLVTVSS VL: DIQMTQSPSSLSASVGDRVTITCRSSQSITFDYKNYLAWYQQKPGKAPKLLIYWGSSLQSGVPSRFSGSGSGTDFTLTISSLQPEDFATYYCQQHYRTPPSFGQGTKVEIK | 0.0231 nM | 0.0219 nM
14 | VH 3 / VL 6 (antibody, V domains shown) VH: QVQLVESGGGVVQPGRSLRLSCAASGFTFSTYAMHWVRQAPGKGLEWVAVISYDANYKYYADSVKGRFTISRDNSKNTLYLQMNSLRAEDTAVYYCAKDSQLRSLLYFEWLSQGYFDYWGQGTLVTVSS VL: EIVMTQSPATLSVSPGERATLSCRSSQSITFDYKNYLAWYQQKPGQAPRLLIYWGSTRATGIPARFSGSGSGTEFTLTISSLQSEDFAVYYCQQHYRTPPSFGQGTKVEIK | 0.0268 nM | 0.0313 nM
15 | VH 12 / VL 2 (antibody, V domains shown) VH: QVQLVQSGAEVKKPGASVKVSCKASGFTFSTYAINWVRQATGQGLEWMGVISYDANYKYYAQKFQGRVTMTRDTSISTAYMELSSLRSEDTAVYYCARDSQLRSLLYFEWLSQGYFDYWGQGTTLTVSS VL: DIQMTQSPSSLSASVGDRVTITCRSSQSITFDYKNYLAWYQQKPGKAPKLLIYWGSSLQSGVPSRFSGSGSGTDFTLTISSLQPEDFATYYCQQHYRTPPSFGQGTKVEIK | 0.0161 nM | 88.9 nM
16 | VH 5 / VL 4 (antibody, V domains shown) VH: QVQLVESGGGVVQPGRSLRLSCAASGFTFSTYAMHWVRQAPGKGLEWVCVISYDANYKYYADSVKGRFTCSRDNSKNTLYLQMNSLRAEDTAVYYCARDSRLRSLLYFEWLSQGYFDYWGQGTLVTVSS VL: DIVMTQSPDSLAVSLGERATINCKSSQSVTFDYKNYLAWYQQKPGQPPKLLIYWASTRESGVPDRFSGSGSGTDFTLTISSLQAEDVAVYYCQQHYRTPPSFGQGTKVEIK | 0.0285 nM | 0.0268 nM
17 | VH 6 / VL 2 (antibody, V domains shown) VH: QVQLVESGGGVVQPGRSLRLSCAASGFTFDTYAMHWVRQAPGKGLEWVAVISYDANYKYYADSVKGRFTISRDNSKNTLYLQMNSLRAEDTAVYYCARDSRLRSLLYFEWLSQGYFDYWGQGTLVTVSS VL: DIQMTQSPSSLSASVGDRVTITCRSSQSITFDYKNYLAWYQQKPGKAPKLLIYWGSSLQSGVPSRFSGSGSGTDFTLTISSLQPEDFATYYCQQHYRTPPSFGQGTKVEIK | 0.0207 nM | 0.108 nM
